Experimental data reported in US20070053905A1 (Chugai, published 2007).
Substitutions are numbered along the chain they refer to.

Experiments:
human PTHrP (1-34) [1] = molecular target: T1, human PTHrP (1-34) (human); assay: solid phase RIA of hybridoma culture supernatant
T1 construct: Synthetic peptide (Peninsula / Peptide Research Institute); coated on ELISA plates at 1 ug/ml; also called parathyroid hormone related peptide (1-34)
Method: Screening of hybridomas was performed by measuring and selecting the existence of a PTHrP recognizing antibody by applying solid phase RIA method to the culture supernatant of the wells where growth was recognized in HAT culture medium.

human PTHrP (1-34) [2] = molecular target: T1, human PTHrP (1-34); assay: ELISA on plate coated with human PTHrP (1-34)
Method: The ELISA plate for antigen binding measurement was prepared as follows. Each well of a 96 well plate for ELISA was coated with 100 μl of human PTHrP(1-34) (Peptide Research Institute) adjusted to 1 μg/ml concentration by the coating buffer. […] After the plate was incubated at room temperature and washed with PBS-Tween20, 100 μl of alkaline phosphatase (TAGO) conjugated goat anti-man IgG antibody was added. After the plate was incubated at room temperature and washed with PBS-Tween20, 1 mg/ml of a substrate solution (Sigma104, p-nitrophenylphosphate, SIGMA) was added, and, next, 405 nm absorption was measured with a micro plate reader (Bio Rad).
The ELISA plate for antigen binding measurement was prepared as follows. Each well of a 96 well plate for ELISA was coated with 100 μl of human PTHrP(1-34) adjusted to 1 μg/ml concentration by the coating buffer. After blocking with 200 μl of the dilution buffer, the culture supernatant of the COS-7 cells in which hybrid antibody or humanized antibody was expressed or the purified hybrid antibody or the humanized antibody was stepwise diluted and added to each well. After the plate was incubated at room temperature and washed with PBS-Tween20, 100 μl of alkaline phosphatase (TAGO) conjugated goat anti-man IgG antibody was added. After the plate was incubated at room temperature and washed with PBS-Tween20, 1 mg/ml of a substrate solution (Sigma104, p-nitrophenylphosphate, SIGMA) was added, and 405 nm absorption was then measured on a micro plate reader (Bio Rad).

B1: mouse monoclonal antibody #23-57-137-1 (antibody, V domains shown)
VH: EVQLVESGGDLVKPGGSLKLSCAASGFTFSSYGMSWIRQTPDKRLEWVATISSGGSYTYYPDSVKGRFTISRDNAKNTLYLQMSSLKSEDTAMFYCARQTTMTYFAYWGQGTLVTVSA
VL: QLVLTQSSSASFSLGASAKLTCTLSSQHSTYTIEWYQQQPLKPPKYVMDLKQDGSHSTGDGIPDRFSGSSSGADRYLSISNIQPEDEAMYICGVGDTIKEQFVYVFGGGTKVTVLG
notes: Mouse hybridoma antibody; The L chain is a mouse lambda chain; the H chain was cloned with a mouse gamma-1 primer (MHC-G1); also called anti-PTHrP MoAb
- binding result (human PTHrP (1-34) [1]): binds

B2: chimera #23-57-137-1 antibody with human L chain kappa chain C domain (antibody, IgG1, V domains shown)
VH: B1 VH
VL: B1 VL
notes: Mouse V domains joined to human Cγ1 (IgG1) and to the human kappa C domain (from plasmid HEF-PM1k-gk); Expressed in COS-7 cells; also called chimeric antibody; MBC1HcDNA/pCOS1 + MBC1L(κ)/neo
- binding result (human PTHrP (1-34) [2]): binds

B3: chimera #23-57-137-1 antibody with human L chain lambda chain C domain (antibody, IgG1, V domains shown)
VH: B1 VH
VL: B1 VL
notes: Expressed in COS-7 cells; also called chimeric antibody; MBC1HcDNA/pCOS1 + MBC1L(λ)/neo
- binding result (human PTHrP (1-34) [2]): binds

B4: humanized #23-57-137-1 antibody with H chain version "a" and L chain version "s" (antibody, V domains shown)
VH: QVQLVESGGGVVQPGRSLRLSCAASGFTFSSYGMSWVRQAPGKGLEWVATISSGGSYTYYPDSVKGRFTISRDNSKNTLYLQMNSLRAEDTAVYYCARQTTMTYFAYWGQGTLVTVSS
VL: QLVLTQSPSASASLGASVKLTCTLSSQHSTYTIEWYQQQPEKGPKYVMDLKQDGSHSTGDGIPDRFSGSSSGAERYLTISSLQSEDEADYICGVGDTIKEQFVYVFGGGTKLTVLG
notes: Human Cγ1 (IgG1) and human lambda C domain; also called hMBC1HcDNA/pCOS1 + hMBC1Lsλ/pCOS1
- binding result (human PTHrP (1-34) [2]): binds

B5: mouse FR1, 2/human FR3, 4 hybrid antibody (L chain m/hMBC1Ldλ) (antibody, V domains shown)
VH: B4 VH
VL: QLVLTQSSSASFSLGASAKLTCTLSSQHSTYTIEWYQQQPLKPPKYVMDLKQDGSHSTGDGIPDRFSGSSSGAERYLTISSLQSEDEADYICGVGDTIKEQFVYVFGGGTKLTVL
notes: Human Cγ1 and human lambda C domain; Expressed in COS-7 cells; also called hMBC1HcDNA/pCOS1 + m/hMBC1Ldλ/neo
- binding result (human PTHrP (1-34) [2]): binds

B6: humanized #23-57-137-1 antibody with H chain version "a" and L chain version "r" (antibody, V domains shown)
VH: B4 VH
VL: B4 VL with K45R, V47L
notes: Human Cγ1 (IgG1) and human lambda C domain; also called hMBC1HcDNA + hMBC1Lrλ
- binding result (human PTHrP (1-34) [2]): binds

B7: humanized #23-57-137-1 antibody with H chain version "a" and L chain version "j" (antibody, IgG1, V domains shown)
VH: B4 VH
VL: B4 VL with V47L, I91Y
notes: Human Cγ1 (IgG1) and human lambda C domain; Expressed in COS-7 cells; also called hMBC1HcDNA/pCOS1 + hMBC1Ljλ/pCOS1
- binding result (human PTHrP (1-34) [2]): binds

B8: mouse FR1, 2/human FR3, 4 hybrid antibody (L chain m/hMBC1Laλ) (antibody, V domains shown)
VH: B4 VH
VL: B5 VL with I91Y
notes: Human Cγ1 and human lambda C domain; Expressed in COS-7 cells; also called hMBC1HcDNA/pCOS1 + m/hMBC1Laλ/neo
- binding result (human PTHrP (1-34) [2]): binds

B9: humanized #23-57-137-1 antibody with H chain version "a" and L chain version "m" (antibody, IgG1, V domains shown)
VH: B4 VH
VL: B4 VL with K45R, V47L, I91Y
notes: Human Cγ1 (IgG1) and human lambda C domain; Expressed in COS-7 cells; also called hMBC1HcDNA/pCOS1 + hMBC1Lmλ/pCOS1
- binding result (human PTHrP (1-34) [2]): binds

B10: humanized #23-57-137-1 antibody with H chain version "a" and L chain version "l" (antibody, IgG1, V domains shown)
VH: B4 VH
VL: B4 VL with I91Y
notes: Human Cγ1 (IgG1) and human lambda C domain; Expressed in COS-7 cells; also called hMBC1HcDNA/pCOS1 + hMBC1Llλ/pCOS1
- binding result (human PTHrP (1-34) [2]): binds

B11: humanized #23-57-137-1 antibody with H chain version "a" and L chain version "t" (antibody, IgG1, V domains shown)
VH: B4 VH
VL: B4 VL with K45R
notes: Human Cγ1 (IgG1) and human lambda C domain; Expressed in COS-7 cells; also called hMBC1HcDNA/pCOS1 + hMBC1Ltλ/pCOS1
- binding result (human PTHrP (1-34) [2]): binds

B12: antibody in which humanized H chain version "a" was combined with a chimera L chain (antibody, V domains shown)
VH: B4 VH
VL: B1 VL
notes: H chain has human Cγ1; also called humanized H chain version a + chimera L chain
- binding result (human PTHrP (1-34) [2]): binds

B13: humanized #23-57-137-1 antibody with H chain version "a" and L chain version "o" (antibody, IgG1, V domains shown)
VH: B4 VH
VL: B4 VL with K45R, I91Y
notes: Human Cγ1 (IgG1) and human lambda C domain; Expressed in COS-7 cells; also called hMBC1HcDNA/pCOS1 + hMBC1Loλ/pCOS1
- binding result (human PTHrP (1-34) [2]): binds

B14: human FR1/mouse FR2, 3, 4 hybrid antibody (L chain hmmMBC1L(λ)) (antibody, V domains shown)
VH: B4 VH
VL: B5 VL with S8P, F12A, A18V, E74D, T78S, S81N, L82I, S84P, D89M, L112V
notes: Human Cγ1 and human lambda C domain; Expressed in COS-7 cells; also called hMBC1HcDNA/pCOS1 + hmmMBC1L(λ)/neo
- binding result (human PTHrP (1-34) [2]): binds

B15: humanized #23-57-137-1 antibody with H chain version "a" and L chain version "q" (antibody, IgG1, V domains shown)
VH: B4 VH
VL: B4 VL with V47L
notes: Human Cγ1 (IgG1) and human lambda C domain; also called hMBC1HcDNA + hMBC1Lqλ; FERM BP-5629 / FERM BP-5630
- binding result (human PTHrP (1-34) [2]): binds
